Measurements as given in the supplement of paper PMC10201428.
± gives the standard deviation of the averaged measurements.

B1: library; a variant is named by its letters at N, in order (parent)
chain: AATGTTGTTGATGCAACCATAAAGTGATATTTAATAATTATTTATAATCAGCAACTTAACCACAAAACAACCATATATTGATATNTCACAAAACAACCATAANTTGATATTTTTGTGAATCGAGTATTTCAGCAAAACTACTGCAGTAAGAA

How the values were obtained:
[1] = variants of: B1; assay: relative integration efficiency (T-LR orientation) vs wild-type transposon end (log2 (normalized fold change)); transposon end mutated: left end; higher = more efficient transposition; details: with VchCAST RNA-guided transposition machinery (E. coli BL21(DE3) host, lacZ target)
Description: (§1)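 Pooled, barcoded VchCAST (Tn6677) mini-transposon donor libraries; each variable transposon-end sequence sits in a fixed pDonor mini-transposon context (10-bp barcode and cargo not included). Left- or right-end libraries were co-transformed with pEffector (TniQ-Cascade, TnsABC, lacZ crRNA, T7, 0.1 mM IPTG) into E. coli BL21(DE3) and grown 18 h at 37 C. T-LR and T-RL junction amplicons were sequenced; output/input barcode fold change was normalised to the mean of four wild-type barcodes and log2-transformed. Two biological replicates; zero-count/undetected variants carry floor values (-10 / -15), censored here. Barcode uncoupling by PCR recombination adds noise.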

[2] = variants of: B1; assay: relative integration efficiency (T-RL orientation) vs wild-type transposon end (log2 (normalized fold change)); transposon end mutated: left end; higher = more efficient transposition; details: with VchCAST RNA-guided transposition machinery (E. coli BL21(DE3) host, lacZ target)
Description: as §1

TA A23G G24T A33T T76A T78G C87A T104A T110A T113A
relative integration efficiency (log2) [1]: 0.283 ± 0.28 | relative integration efficiency (log2) [2]: 0.0976 ± 0.22

TA A23G G24T A33T A70C T76A T84A C87A T104A T110A T113A
relative integration efficiency (log2) [1]: -0.119 ± 0.32 | relative integration efficiency (log2) [2]: -0.0493 ± 0.28

TA G24A T30A A70C T76A T86G A96C T110A T113A
relative integration efficiency (log2) [1]: 0.0588 ± 0.23 | relative integration efficiency (log2) [2]: -0.265 ± 0.38

TA A70C T76A T86G A96C T112G T113C
relative integration efficiency (log2) [1]: 0.367 ± 0.4 | relative integration efficiency (log2) [2]: -0.132 ± 0.23

AG
relative integration efficiency (log2) [1]: 0.27 ± 0.094 | relative integration efficiency (log2) [2]: 0.00541 ± 0.045

TA A16C G24T T32G A33C T76A T78G C87A T104G T113A
relative integration efficiency (log2) [1]: -0.174 ± 1.1 | relative integration efficiency (log2) [2]: -0.675 ± 0.24

CG A11T T12A G13C C14G
relative integration efficiency (log2) [1]: -2.81 ± 1.2 | relative integration efficiency (log2) [2]: -0.558 ± 0.43

TA G24A T30A A70C T76A T86G T104G T113A
relative integration efficiency (log2) [1]: -0.0684 ± 0.51 | relative integration efficiency (log2) [2]: -0.533 ± 0.11

TA A22T G24T T31C A33C T76A T78G C87A A96C T112G T113C
relative integration efficiency (log2) [1]: -0.491 ± 0.49 | relative integration efficiency (log2) [2]: -0.16 ± 0.22

TG A16C G24T T30A T76A T78G C87A
relative integration efficiency (log2) [1]: -0.0456 ± 0.17 | relative integration efficiency (log2) [2]: 0.0194 ± 0.14

CG A15G
relative integration efficiency (log2) [1]: -0.118 ± 0.26 | relative integration efficiency (log2) [2]: -0.121 ± 0.26

CG A15C
relative integration efficiency (log2) [1]: 0.321 ± 0.27 | relative integration efficiency (log2) [2]: 0.0839 ± 0.1

CG A15T
relative integration efficiency (log2) [1]: 0.37 ± 0.27 | relative integration efficiency (log2) [2]: -0.148 ± 0.14

TA A22T G24T T31C A33C T76A A77G C87T T104A T110A T113A
relative integration efficiency (log2) [1]: 0.0775 ± 0.37 | relative integration efficiency (log2) [2]: -0.819 ± 0.52

TA A22T G24T T31C A33C T76A T78A T84A C87A A96C T110A T113A
relative integration efficiency (log2) [1]: -0.768 ± 1.2 | relative integration efficiency (log2) [2]: -0.365 ± 0.32

TA A22T G24T T31C A33C T76A T78A T84A C87A A102T T111C T113C
relative integration efficiency (log2) [1]: -0.838 ± 1.2 | relative integration efficiency (log2) [2]: -0.485 ± 0.43

CA A16C G24T T32G A33C T104A T110A T113A
relative integration efficiency (log2) [1]: -0.927 ± 0.11 | relative integration efficiency (log2) [2]: -0.976 ± 0.39

CG A16C G24T T32G A33C
relative integration efficiency (log2) [1]: -0.475 ± 0.83 | relative integration efficiency (log2) [2]: -0.332 ± 0.18

CC A22T A23T G24C T25A T76A A77T T78A T79A A102T T104A T105A
relative integration efficiency (log2) [1]: -2.83 ± 0.82 | relative integration efficiency (log2) [2]: -3 ± 1.3

CA A22T G24T T31C A33C T104A T110A T113A
relative integration efficiency (log2) [1]: -0.859 ± 0.31 | relative integration efficiency (log2) [2]: -0.686 ± 0.34

TA A22T G24T T31C A33C A70C T76A T86G A96C T110A T113A
relative integration efficiency (log2) [1]: 0.00776 ± 0.18 | relative integration efficiency (log2) [2]: -0.657 ± 0.25

CA A22T G24T T31C A33C A102T T111C T113C
relative integration efficiency (log2) [1]: -0.528 ± 0.39 | relative integration efficiency (log2) [2]: -0.843 ± 0.57

TA A23G G24T A33T T76A T78G C87A A102T T111C T113C
relative integration efficiency (log2) [1]: -0.451 ± 0.41 | relative integration efficiency (log2) [2]: -0.227 ± 0.17

TG
relative integration efficiency (log2) [1]: 0.322 ± 0.57 | relative integration efficiency (log2) [2]: 0.126 ± 0.046

CG A15T A69T A95T
relative integration efficiency (log2) [1]: -1.55 ± 0.76 | relative integration efficiency (log2) [2]: -1.31 ± 0.47

TA A23G G24T A33T T76A T78A T84A C87A T104G T113A
relative integration efficiency (log2) [1]: 0.315 ± 0.39 | relative integration efficiency (log2) [2]: -0.265 ± 0.4

TA A16C G24T T32G A33C T76A T78A T84A C87A T104A T110A T113A
relative integration efficiency (log2) [1]: -0.781 ± 0.91 | relative integration efficiency (log2) [2]: -0.706 ± 0.26

CG A16T C17G C18G A19T
relative integration efficiency (log2) [1]: -1.18 ± 1.3 | relative integration efficiency (log2) [2]: -1.61 ± 0.74

TA T76A T78G C87A A96C T110A T113A
relative integration efficiency (log2) [1]: -0.0777 ± 0.55 | relative integration efficiency (log2) [2]: -0.0885 ± 0.14

CA A23G G24T A33T A102T T111C T113C
relative integration efficiency (log2) [1]: -0.354 ± 0.18 | relative integration efficiency (log2) [2]: -0.967 ± 0.39

TA A22T G24T T31C A33C A70C T76A T84A C87A T104G T113A
relative integration efficiency (log2) [1]: -0.566 ± 0.36 | relative integration efficiency (log2) [2]: -0.81 ± 0.5

CG A19T T20A A21T A22T
relative integration efficiency (log2) [1]: -1.03 ± 0.48 | relative integration efficiency (log2) [2]: -1.21 ± 0.46

CG A21T A22T A23T G24C
relative integration efficiency (log2) [1]: -0.979 ± 0.79 | relative integration efficiency (log2) [2]: -0.775 ± 0.46

TA A22T G24T T31C A33C A70C T76A T84A C87A A96C T112G T113C
relative integration efficiency (log2) [1]: -0.665 ± 0.33 | relative integration efficiency (log2) [2]: -0.334 ± 0.36

CG A2T
relative integration efficiency (log2) [1]: 0.355 ± 0.34 | relative integration efficiency (log2) [2]: -0.141 ± 0.054

CG A2C
relative integration efficiency (log2) [1]: 0.61035 ± 0.00046 | relative integration efficiency (log2) [2]: -0.0562 ± 0.037

CG A2G
relative integration efficiency (log2) [1]: 0.28 ± 0.065 | relative integration efficiency (log2) [2]: 0.239 ± 0.039

TA A23G G24T A33T T76A A77G C87T T104A T110A T113A
relative integration efficiency (log2) [1]: 0.0613 ± 0.2 | relative integration efficiency (log2) [2]: -0.917 ± 0.47

TA A16C G24T T32G A33C T76A A77G C87T T104G T113A
relative integration efficiency (log2) [1]: -0.746 ± 0.94 | relative integration efficiency (log2) [2]: -1.52 ± 0.61

TG A16C G24T T30A A70C T76A T86G
relative integration efficiency (log2) [1]: 0.235 ± 0.55 | relative integration efficiency (log2) [2]: 0.0267 ± 0.24

TA T76A A77G C87T A102T T111C T113C
relative integration efficiency (log2) [1]: -0.406 ± 0.13 | relative integration efficiency (log2) [2]: -0.659 ± 0.28

CA T104A T110A T113A
relative integration efficiency (log2) [1]: -0.182 ± 0.39 | relative integration efficiency (log2) [2]: -0.656 ± 0.2

TA T76A T78G C87A A96C T112G T113C
relative integration efficiency (log2) [1]: 0.518 ± 0.51 | relative integration efficiency (log2) [2]: 0.206 ± 0.018

TA A16C G24T T32G A33C T76A T78A T84A C87A A96C T112G T113C
relative integration efficiency (log2) [1]: -0.572 ± 0.31 | relative integration efficiency (log2) [2]: -0.447 ± 0.34

CG A1C A2C T3G G4T
relative integration efficiency (log2) [1]: -0.0427 ± 0.68 | relative integration efficiency (log2) [2]: -0.346 ± 0.11

TA G24A T30A T76A A77G C87T T104A T110A T113A
relative integration efficiency (log2) [1]: 0.503 ± 0.28 | relative integration efficiency (log2) [2]: -0.582 ± 0.57

CG A1C
relative integration efficiency (log2) [1]: 0.307 ± 0.19 | relative integration efficiency (log2) [2]: -0.0236 ± 0.1

CG A1G
relative integration efficiency (log2) [1]: 0.115 ± 0.63 | relative integration efficiency (log2) [2]: 0.133 ± 0.095

CG A1T
relative integration efficiency (log2) [1]: 0.281 ± 0.54 | relative integration efficiency (log2) [2]: 0.063 ± 0.045

CG A16C G24T T30A
relative integration efficiency (log2) [1]: -0.135 ± 0.14 | relative integration efficiency (log2) [2]: -0.3 ± 0.21

TA G24A T30A T76A T78A T84A C87A A102T T111C T113C
relative integration efficiency (log2) [1]: -0.493 ± 1.1 | relative integration efficiency (log2) [2]: -0.0919 ± 0.22

CG A2T T3A G4C T5A
relative integration efficiency (log2) [1]: -0.131 ± 0.037 | relative integration efficiency (log2) [2]: -0.0191 ± 0.036

TA G24A T30A T76A T78A T84A C87A A96C T110A T113A
relative integration efficiency (log2) [1]: 0.0142 ± 0.25 | relative integration efficiency (log2) [2]: 0.0999 ± 0.18

TA A23G G24T A33T A70C T76A T84A C87A A102T T111C T113C
relative integration efficiency (log2) [1]: -0.166 ± 0.29 | relative integration efficiency (log2) [2]: 0.133 ± 0.28

CC A102T
relative integration efficiency (log2) [1]: 0.202 ± 0.2 | relative integration efficiency (log2) [2]: -0.155 ± 0.12

TA A23G G24T A33T T76A T78A T84A C87A T104A T110A T113A
relative integration efficiency (log2) [1]: 0.471 ± 0.38 | relative integration efficiency (log2) [2]: 0.117 ± 0.25

TA A70C T76A T86G T104G T113A
relative integration efficiency (log2) [1]: 0.359 ± 0.88 | relative integration efficiency (log2) [2]: -0.145 ± 0.22

TA A22T G24T T31C A33C T76A T78G C87A T104G T113A
relative integration efficiency (log2) [1]: -0.379 ± 0.48 | relative integration efficiency (log2) [2]: -0.685 ± 0.35
